Measured values as given in PMC5079630.

Legend:
STAT1 N domain [1] = target: STAT1 N domain (UniProt P42224); test: AUC; sedimentation equilibrium of one N domain alone; homodimer to monomers; concentrations not given
STAT1 N domain [2] = target: STAT1 N domain (UniProt P42224); test: AUC; sedimentation equilibrium; STAT1 N domain and mEGFP-tagged STAT2 N domain at final equimolar concentrations of 2.5, 10 and 40 uM; heterodimer to monomers
STAT2 N domain (human) = STAT2 N domain (human) (UniProt P52630); test: AUC; sedimentation equilibrium of one N domain alone; homodimer to monomers; concentrations not given
importin-α5 = importin-α5 (UniProt P52294); test: anti-FLAG co-immunoprecipitation, immunoblot; conditions: reference: STAT1-YFP wild type; sites Y701
[3] = system: STAT1 (Tyr701-phosphorylated; GAF) (human (U6A cells)); test: EMSA; conditions: Combined cytoplasmic and nuclear extracts of U6A cells (IFN-beta 500 U/ml or IFN-gamma 50 U/ml, 1 h), normalized for pY701-STAT1; 10 nM dsDNA probe; buffer …

Sequence of STAT1 N domain (P42224 whole entry): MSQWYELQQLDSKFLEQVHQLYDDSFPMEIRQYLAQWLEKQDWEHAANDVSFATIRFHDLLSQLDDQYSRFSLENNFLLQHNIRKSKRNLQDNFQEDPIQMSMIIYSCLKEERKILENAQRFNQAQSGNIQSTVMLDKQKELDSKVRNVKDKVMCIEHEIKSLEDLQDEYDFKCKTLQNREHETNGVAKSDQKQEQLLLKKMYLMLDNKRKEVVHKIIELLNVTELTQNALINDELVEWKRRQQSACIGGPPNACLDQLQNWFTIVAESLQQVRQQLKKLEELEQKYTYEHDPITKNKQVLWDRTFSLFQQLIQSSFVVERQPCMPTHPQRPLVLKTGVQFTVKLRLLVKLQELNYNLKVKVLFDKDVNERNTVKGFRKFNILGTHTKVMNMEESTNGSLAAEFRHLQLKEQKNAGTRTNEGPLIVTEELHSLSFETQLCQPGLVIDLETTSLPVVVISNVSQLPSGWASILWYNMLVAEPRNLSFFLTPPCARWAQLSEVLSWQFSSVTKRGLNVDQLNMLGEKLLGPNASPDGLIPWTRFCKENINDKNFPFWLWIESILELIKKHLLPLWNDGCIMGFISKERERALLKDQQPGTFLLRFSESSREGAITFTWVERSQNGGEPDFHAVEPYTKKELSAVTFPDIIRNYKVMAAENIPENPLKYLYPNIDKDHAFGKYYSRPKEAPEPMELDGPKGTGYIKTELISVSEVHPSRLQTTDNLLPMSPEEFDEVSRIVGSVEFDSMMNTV

STAT1 N domain (from UniProt P42224 1-750) (domain or fragment)
Kd (STAT1 N domain [1]): 16.6 µM

STAT2 N domain (from UniProt P52630 1-851) (domain or fragment)
Kd (STAT1 N domain [2]): 0.01 µM
Kd (STAT2 N domain (human)): 704 µM

STAT2 N domain LL81,82AA (from UniProt P52630 1-851) (domain or fragment)
Kd (STAT1 N domain [2]): 5480 µM

STAT1 (from UniProt P42224) STAT1-YFP Y701F
binding against the reference (importin-α5): lost

GAS (M67) probe
binding signal (% of GAF activity without STAT2) [3]: 25
